Biological target: T1, USP15 (275–981) (human, UniProt Q9Y4E8 275-981)
T1 sequence: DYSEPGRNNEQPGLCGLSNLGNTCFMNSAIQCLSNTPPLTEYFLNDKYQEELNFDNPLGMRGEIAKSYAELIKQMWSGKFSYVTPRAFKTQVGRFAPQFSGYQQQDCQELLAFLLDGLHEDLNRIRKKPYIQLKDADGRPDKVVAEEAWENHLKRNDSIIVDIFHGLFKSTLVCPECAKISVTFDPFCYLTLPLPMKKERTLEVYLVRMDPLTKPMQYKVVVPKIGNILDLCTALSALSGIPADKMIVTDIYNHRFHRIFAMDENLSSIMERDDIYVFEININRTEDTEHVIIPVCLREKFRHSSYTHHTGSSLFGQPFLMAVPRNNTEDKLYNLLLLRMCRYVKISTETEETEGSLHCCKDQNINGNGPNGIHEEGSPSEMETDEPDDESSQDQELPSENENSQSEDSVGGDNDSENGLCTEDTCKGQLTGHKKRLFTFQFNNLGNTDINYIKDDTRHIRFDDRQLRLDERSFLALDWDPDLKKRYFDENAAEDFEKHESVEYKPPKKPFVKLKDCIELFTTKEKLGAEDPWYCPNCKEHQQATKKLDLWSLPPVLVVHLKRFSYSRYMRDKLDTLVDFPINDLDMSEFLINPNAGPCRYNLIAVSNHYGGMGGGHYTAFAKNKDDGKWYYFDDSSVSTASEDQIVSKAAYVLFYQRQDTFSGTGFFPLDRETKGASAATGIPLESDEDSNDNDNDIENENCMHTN
Experiment: pull-down

B1: GST–cGAS (161–522) (domain or fragment)
chain: GASKLRAVLEKLKLSRDDISTAAGMVKGVVDHLLLRLKCDSAFRGVGLLNTGSYYEHVKISAPNEFDVMFKLEVPRIQLEEYSNTRAYYFVKFKRNPKENPLSQFLEGEILSASKMLSKFRKIIKEEINDIKDTDVIMKRKRGGSPAVTLLISEKISVDITLALESKSSWPASTQEGLRIQNWLSAKVRKQLRLKPFYLVPKHAKEGNGFQEETWRLSFSHIEKEILNNHGKSKTCCENKEEKCCRKDCLKLMKYLLEQLKERFKDKKHLDKFSSYHVKTAFFHVCTQNPQDSQWDRKDLGLCFDNCVTYFLQCLRTEKLENYFIPEFNLFSSNLIDKRSKEFLTKQIEYERNNEFPVFDEF
B1: binds.

From PMC9638925 (Nucleic Acids Research, 2022)
